13 molecules from publication PMC6745501, “Plant photoreceptors and their signaling components compete for COP1 binding via VP peptide motifs” (The EMBO Journal, 2019) can be followed below.

In series [1] the target is T1, Arabidopsis COP1^349–675 WD40 domain (Arabidopsis, UniProt P43254 349-675).
T1 construct: COP1 (CONSTITUTIVELY PHOTOMORPHOGENIC 1) E3 ubiquitin ligase, Arabidopsis, WD40 domain, residues 349-675; also called COP1 WD40 domain; COP1 WD40; not shown: His10, N-terminal, cleaved; Twin-Strep, N-terminal, cleaved
T1 sequence (looked up): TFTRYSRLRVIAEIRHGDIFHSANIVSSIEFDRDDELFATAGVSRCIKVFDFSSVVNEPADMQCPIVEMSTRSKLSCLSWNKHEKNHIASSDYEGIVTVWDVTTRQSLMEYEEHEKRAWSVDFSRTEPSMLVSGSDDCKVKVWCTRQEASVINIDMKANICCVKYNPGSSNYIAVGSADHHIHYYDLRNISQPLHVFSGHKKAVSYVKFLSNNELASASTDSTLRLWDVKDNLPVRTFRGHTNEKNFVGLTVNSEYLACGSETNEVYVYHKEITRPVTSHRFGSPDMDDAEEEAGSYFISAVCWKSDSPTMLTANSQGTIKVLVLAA
Description: ITC; VP peptide (titrant, 500-3,000 μM) injected into COP1 WD40 in the cell at about 10-fold lower concentration; 150 mM NaCl, 20 mM HEPES 7.4, 2 mM BME; 25°C; one-site binding model. As to conditions: both partners purified.

In series [2] the target is T2, COP1^349–675,Lys422Ala WD40 domain (Arabidopsis, UniProt P43254 349-675, Lys422Ala).
T2 construct: COP1, Arabidopsis, WD40 domain, residues 349-675, Lys422Ala; also called COP1^Lys422Ala; not shown: His10, N-terminal, cleaved; Twin-Strep, N-terminal, cleaved
T2 sequence (looked up): T1 sequence (looked up) with K74A
Described as above. As to conditions: both partners purified.

Series [3] concerns the target T1, Arabidopsis COP1^349–675 WD40 domain. Description: grating-coupled interferometry (GCI); COP1 WD40 amine-coupled (2,000 pg/mm^2), surface passivated with BSA; analyte full-length CRY2 activated by light (highest 14 μM) or CRY2^NC80 (highest 450 μM); 150 mM NaCl, 20 mM HEPES 7.4, 2 mM BME; 25°C; heterogenous ligand model. Conditions: both partners purified.
Series [4] has the same target. Description: crystal structure; co-crystals, 5 mg/ml COP1 with 3- to 10-fold molar excess of peptide; 1.25 M sodium malonate pH 7.5; 20°C. As to conditions: both partners purified.
Series [5] deals with the molecule itself. Nature of the series: SEC; purified recombinant chimeric UVR8 proteins alone, in the absence of UV-B.
Series [6] deals with T1, Arabidopsis COP1^349–675 WD40 domain. Description: grating-coupled interferometry (GCI); COP1 WD40 amine-coupled to the chip (2,000 pg/mm^2); analyte in 1:3 dilution series from 2 μM (UVR8 forms pre-monomerized by UV-B; HY5); 150 mM NaCl, 20 mM HEPES 7.4, 2 mM BME; 25°C; 1:1 binding model. As to conditions: both partners purified.

Changes are numbered by the printed parent chain.

B1: UVR8^406–413 VP peptide (peptide, UniProt Q9FN03 406-413, looked up)
peptide: RYAVVPDE
notes: also called UVR8 VP peptide; UVR8 peptide; source: synthetic peptide (Peptide Specialty Labs GmbH)
Turning to B1, in series [1], the binding result was “binds”. Besides, in series [2], the “fold increase in binding affinity against wild type COP1” value was roughly 10 fold and the “stoichiometry N” value was 0.87.

B2: full‐length CRY2 (recombinant) (receptor, Arabidopsis, UniProt Q96524 1-612, looked up)
chain: MKMDKKTIVWFRRDLRIEDNPALAAAAHEGSVFPVFIWCPEEEGQFYPGRASRWWMKQSLAHLSQSLKALGSDLTLIKTHNTISAILDCIRVTGATKVVFNHLYDPVSLVRDHTVKEKLVERGISVQSYNGDLLYEPWEIYCEKGKPFTSFNSYWKKCLDMSIESVMLPPPWRLMPITAAAEAIWACSIEELGLENEAEKPSNALLTRAWSPGWSNADKLLNEFIEKQLIDYAKNSKKVVGNSTSLLSPYLHFGEISVRHVFQCARMKQIIWARDKNSEGEESADLFLRGIGLREYSRYICFNFPFTHEQSLLSHLRFFPWDADVDKFKAWRQGRTGYPLVDAGMRELWATGWMHNRIRVIVSSFAVKFLLLPWKWGMKYFWDTLLDADLECDILGWQYISGSIPDGHELDRLDNPALQGAKYDPEGEYIRQWLPELARLPTEWIHHPWDAPLTVLKASGVELGTNYAKPIVDIDTARELLAKAISRTREAQIMIGAAPDEIVADSFEALGANTIKEPGLCPSVSSNDQQVPSAVRYNGSKRVKPEEEEERDMKKSRGFDERELFSTAESSSSSSVFFVSQSCSLASEGKNLEGIQDSSDQITTSLGKNGCK
notes: cryptochrome 2 (CRY2), Arabidopsis blue-light photoreceptor, full length; not shown: His10, N-terminal, cleaved; Twin-Strep, N-terminal, cleaved
Consider B2, for which the “fold increase in binding affinity over the isolated CRY2 VP peptide” value in series [3] is roughly 200 fold.

B3: STO^240–247 VP peptide (peptide, UniProt Q96288 240-247, looked up)
peptide: EHFIVPDL
notes: SALT TOLERANCE (STO/BBX24) transcription factor, residues 240-247; also called STO peptide; SALT TOLERANCE (STO/BBX24); source: synthetic peptide (Peptide Specialty Labs GmbH)
On to B3, for which, in series [4], the binding result is reported as “binds”.

B4: HYH^27–34 VP peptide (peptide, UniProt Q8W191 27-34, looked up)
peptide: ELLMVPDM
notes: HYH (HY5 homolog) transcription factor, residues 27-34; also called HYH peptide; source: synthetic peptide (Peptide Specialty Labs GmbH)
Regarding B4, in series [4], the binding result is given as “binds”.

B5: UVR8^TRIB1VP chimera (recombinant) (other)
chain: MAEDMAADEVTAPPRKVLIISAGASHSVALLSGDIVCSWGRGEDGQLGHGDAEDRPSPTQLSALDGHQIVSVTCGADHTVAYSQSGMEVYSWGWGDFGRLGHGNSSDLFTPLPIKALHGIRIKQIACGDSHCLAVTMEGEVQSWGRNQNGQLGLGDTEDSLVPQKIQAFEGIRIKMVAAGAEHTAAVTEDGDLYGWGWGRYGNLGLGDRTDRLVPERVTSTGGEKMSMVACGWRHTISVSYSGALYTYGWSKYGQLGHGDLEDHLIPHKLEALSNSFISQISGGWRHTMALTSDGKLYGWGWNKFGQVGVGNNLDQCSPVQVRFPDDQKVVQVSCGWRHTLAVTERNNVFAWGRGTNGQLGIGESVDRNFPKIIEALSVDGASGQHIESSNIDPSSGKSWVSPAESDQIVPEY
On to B5, for which the “stoichiometry N” value in series [5] worked out at 2.

B6: CRY1^544–552 VP peptide (peptide, UniProt Q43125 544-552, looked up)
peptide: EDQMVPSIT
notes: cryptochrome 1 (CRY1), Arabidopsis blue-light photoreceptor, residues 544-552 (holds Asp545); also called CRY1 VP peptide; CRY1 peptide; source: synthetic peptide (Peptide Specialty Labs GmbH)
For B6, the results for the “stoichiometry N” value in series [1] and in series [2] were 0.99 and 0.98, respectively.

B7: CRY2^527–535 VP peptide (peptide, UniProt Q96524 527-535, looked up)
peptide: NDQQVPSAV
notes: also called CRY2 VP peptide; source: synthetic peptide (Peptide Specialty Labs GmbH)
For B7, the “stoichiometry N” value in series [1] stood at 1.04. For the same molecule, in series [2], the “fold reduction of binding against wild type COP1” value was roughly 30 fold.

B8: full‐length HY5 protein (recombinant) (natural protein, Arabidopsis, UniProt O24646 1-168, looked up)
chain: MQEQATSSLAASSLPSSSERSSSSAPHLEIKEGIESDEEIRRVPEFGGEAVGKETSGRESGSATGQERTQATVGESQRKRGRTPAEKENKRLKRLLRNRVSAQQARERKKAYLSELENRVKDLENKNSELEERLSTLQNENQMLRHILKNTTGNKRGGGGGSNADASL
notes: ELONGATED HYPOCOTYL 5 (HY5) bZIP transcription factor, full length; not shown: His10, N-terminal, cleaved; Twin-Strep, N-terminal, cleaved
As for B8, the Kd in series [6] is roughly 1000 nM.

B9: CRY2^NC80 (CRY2^486–565) (domain or fragment, Arabidopsis, UniProt Q96524 486-565, looked up)
chain: SRTREAQIMIGAAPDEIVADSFEALGANTIKEPGLCPSVSSNDQQVPSAVRYNGSKRVKPEEEEERDMKKSRGFDERELF
notes: cryptochrome 2 (CRY2), Arabidopsis, fragment of the C-terminus containing the VP motif (NC80 domain), residues 486-565; also called NC80 domain; not shown: His10, N-terminal, cleaved; Twin-Strep, N-terminal, cleaved
Turning to B9, the binding result in series [3] is on record as “binds”.

B10: CO^366–373 VP peptide (peptide, UniProt Q39057 366-373, looked up)
peptide: GYGIVPSF
notes: CONSTANS (CO/BBX1) transcription factor, residues 366-373; also called CO VP peptide; CONSTANS; source: synthetic peptide (Peptide Specialty Labs GmbH)
With B10, the results for the “stoichiometry N” value in series [1] and in series [2] were 1.03 and 0.89, respectively. Besides, the “fold stronger binding than to wild type COP1” value in series [2] was roughly 4 fold.

B11: UVR8^HY5VP chimera (recombinant) (other)
chain: MAEDMAADEVTAPPRKVLIISAGASHSVALLSGDIVCSWGRGEDGQLGHGDAEDRPSPTQLSALDGHQIVSVTCGADHTVAYSQSGMEVYSWGWGDFGRLGHGNSSDLFTPLPIKALHGIRIKQIACGDSHCLAVTMEGEVQSWGRNQNGQLGLGDTEDSLVPQKIQAFEGIRIKMVAAGAEHTAAVTEDGDLYGWGWGRYGNLGLGDRTDRLVPERVTSTGGEKMSMVACGWRHTISVSYSGALYTYGWSKYGQLGHGDLEDHLIPHKLEALSNSFISQISGGWRHTMALTSDGKLYGWGWNKFGQVGVGNNLDQCSPVQVRFPDDQKVVQVSCGWRHTLAVTERNNVFAWGRGTNGQLGIGESVDRNFPKIIEALSVDGASGQHIESSNIDPSSGKSWVSPAEEIRRVPEFTGLTDGSSKGNGGDISVPQTDVKRVRI
As for B11, in series [5], the “stoichiometry N” value is 2.

B12: COL3^287–294 VP peptide (peptide, UniProt Q9SK53 287-294, looked up)
peptide: GFGVVPSF
notes: COL3/BBX4 transcription factor, residues 287-294 (holds Phe288); also called COL3 VP peptide; COL3 peptide; source: synthetic peptide (Peptide Specialty Labs GmbH)
In the case of B12, the “stoichiometry N” value in series [1] stood at 0.75; in series [2] it was 0.9.

B13: HFR1^57–64 VP peptide (peptide, UniProt Q9FE22 57-64, looked up)
peptide: YLQIVPEI
notes: LONG HYPOCOTYL IN FAR-RED 1 (HFR1) transcription factor, residues 57-64; also called HFR1 peptide; LONG HYPOCOTYL IN FAR‐RED 1; source: synthetic peptide (Peptide Specialty Labs GmbH)
For the molecule B13, the binding result in series [4] is reported as “binds”.
